Laboratory results reported in patent publication US20030078374A1, “Complementary peptide ligands generated from the human genome” (priority 1999, published 2003).

Key:
IL-1β = IL-1β (Homo sapiens, UniProt P01584); experiment: two independent in vitro bioassays of IL-1β biological activity; format: cell-based; settings: effect dependent on the peptide sequence
Text: The programme identified the antisense region LITVLNI in the interleukin 1 type 1 receptor (IL-1R).
The effect is dependent on the peptide sequence.

IL-1 [1] = molecular target: T1, IL-1 (Homo sapiens, UniProt P01584); experiment: Serum Amyloid IL-1 assay; format: cell-based
T1 sequence (P01584 117-269): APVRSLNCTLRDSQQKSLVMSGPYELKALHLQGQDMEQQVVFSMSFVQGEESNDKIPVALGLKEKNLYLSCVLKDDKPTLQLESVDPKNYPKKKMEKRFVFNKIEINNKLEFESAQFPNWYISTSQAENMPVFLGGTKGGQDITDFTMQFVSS

IL-1 [2] = molecular target: T1, IL-1; experiment: direct binding to IL-1 by biosensing techniques

Sequence of IL-1β (P01584 117-269): as above

## LITVLNI [antisense region in the interleukin 1 type 1 receptor (IL-1R) identified by the programme]
IL-1β
  inhibition of the biological activity of IL-1β: shown to inhibit the biological activity of IL-1β
IL-1 [1]
  inhibition of IL-1 activity (same effect) in Serum Amyloid IL-1 assay: same effect is also seen
IL-1 [2]
  direct binding to IL-1: shown to bind directly to IL-1
